Test: yeast display, Sf9 membrane polyspecificity reagent, FACS + sequencing; frameworks hold sequencing errors
In short: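 After 36–48 hours of galactose induction, yeast (Saccharomyces cerevisiae BJ5465) displaying a synthetic nanobody library were stained at 4 °C for 1 hour with 10% biotinylated, detergent-solubilized Sf9 membrane reagent. Streptavidin microbeads enriched the stained cells before FACS sorting into low and high (top ~1%) gates on anti-HA and streptavidin fluorescence. Each clone's polyreactivity label reflects its gate of origin.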

QVQLVESGGGLVQAGGSLRLSCAASGLTLDQYPMGWYRPAPGKEREFVAAISYSGGNTYYADSVKGRFTISRYNAKNTVYLQMNSLKPEETAVYYCAAYYYYFYHKVIWYELDYWGHGTQVTVSS
polyreactivity (PSR sort gate): low polyreactivity

QVQLVESGGGLVQAGGSLRLSCAASGLTLGRYAKGWYRQAPGKARELVAVITGGGSTNYADSVKGRFTISRDNAKNTVYLQMNTLKTEDTAVYFCAVRGGIFQTLSTWYRYYYWGQGTQVTVSS
polyreactivity (PSR sort gate): high polyreactivity

QVQLVESGGGLVQAGGSLRLSCAASGLTLGRYARGWYRQAPGKERELVAVITGGGSTNYADSVKGRFTISRDNSKNTVYLQMNSLKPEDTAVYYCAAARSPYKYSYWGQGTQVTVSS
polyreactivity (PSR sort gate): high polyreactivity

QVQLVESGGGLVQAGGSLRLSCAASGLTLGSYTMGWYRQAPGKERELVAAIRKRGSSSYYADSVKGRFTISRDNAKNTVYLQMISQKPEDTAVYYCATDVASYWYRFFWRYGYWGQGTQVTVSS
polyreactivity (PSR sort gate): low polyreactivity

QVQLVESGGGLVQAGGSLRLSCAASGLTLKRNAMGWYRQAPGKERELVAAISGRGGSTYYADSVKGRFTISRDNAKNTVYLQMNSLKPEVTAVYYCAATVQYSPIYDYWGQGTQVTVSS
polyreactivity (PSR sort gate): high polyreactivity

QVQLVESGGGLVQAGGSLRLSCAASGLTLRNYAMGWYRQAPGKERELVAAITTGGGRTYYADSVKGRFTISRDNAKNTVYFQMNSVKPEDTAVYYCAADAPREYVDHYKYDDDYWGQGTQVTVSS
polyreactivity (PSR sort gate): low polyreactivity

QVQLVESGGGLVQAGGSLRLSCAASGLTLTWNAMGWYRQAPGKERELVAAITGSGGRTNYADSVKGRFTISRDNAKNTVYLQMNSLKPEDTAVYYCASFRWYHWGTRYDYWGQGTQVTVSS
polyreactivity (PSR sort gate): high polyreactivity

QVQLVESGGGLVQAGGSLRLSCAASGLTLTYYAMGWYRQAAGKERELVAAISSSGGSTYYADSVKGRFTISRDNAKNTVYLQMNSLKPEDTAVYYCAATRVSWTGRDDYWGQGTQVTVSS
polyreactivity (PSR sort gate): high polyreactivity

QVQLVESGGGLVQAGGSLRLSCAASGLTLWTYAMGWYIQAPGQERELVARIRSGGSTYYADSVKGRFTISRDNAKNTVYLQMNSLKPEDTAVYYCAADLQSRVDYWGQGTQVTVSS
polyreactivity (PSR sort gate): high polyreactivity

QVQLVESGGGLVQAGGSLRLSCAASGLTLYFYVMGWYRQAPGKERELVAAISSTGSTYYADSVKGRFSISRDNAKNTVYLQMNSLKPEDTAVYYCAARKRGWYGYWGQGTQVTVSS
polyreactivity (PSR sort gate): high polyreactivity

QVQLVESGGGLVQAGGSLRLSCAASGLTLYKNGMGWYRQAPGKERELVAVISRSGGRTYYADSVKGRFTISRDNAKNTVYLQMNSLKPEDTAVYYCAARQYGPRYTYYYWGQGTQVTVSS
polyreactivity (PSR sort gate): high polyreactivity

QVQLVESGGGLVQAGGSLRLSCAASGLTLYKNGMGWYRQAPGKERELVAVISRSGGRTYYAESVKGRFTISRDNAKNTVYLQMNSLKPEDTSVYYCAKRYGYTEYYYWGQGTQVTVSS
polyreactivity (PSR sort gate): high polyreactivity

QVQLVESGGGLVQAGGSLRLSCAASGLTLYRYVMGWYRQAPGKERELVADISGRGTSTYYADSVKGRFTISRDNAKNTVYLQMNRLKPAATAVYYCNAEYTKTGALVIPYTYYYAEDYWGQGTQVTVSS
polyreactivity (PSR sort gate): low polyreactivity

QVQLVESGGGLVQAGGSLRLSCAASGLTLYYNAMGWYRQAPGKERELVAAMSGSGGNTYYADSVKGRFTISRDNAKNTVYLQMNSLKPEDTAVYYCNAYTHSRNPERREYYWGQGTQVTVSS
polyreactivity (PSR sort gate): high polyreactivity

QVQLVESGGGLVQAGGSLRLSCAASGLTSVRYAMGWYRQAPGKERELVARISTGGSTYYADSVKGRFTISRDNAKNTVYLQMNSLKPEDTAVYYCNKGYARRYASGYDYWGQGTQVTVSS
polyreactivity (PSR sort gate): high polyreactivity

QVQLVESGGGLVQAGGSLRLSCAASGLTVKWNAMGWYREAPGKETELFASITSGGSTNYADSVKGRFTISRDNAKNTVYLQMNSLKPEDTAFYYCNAEYYLFKRPYSYYYWGQGTQVTVSS
polyreactivity (PSR sort gate): low polyreactivity

QVQLVESGGGLVQAGGSLRLSCAASGMFGLNAMGWYRQAPGKERELVAAIRWTGSSTYYADSVKGRFTISRDNAKNTVYLQMNSLKPEDTADYYCAADFYVWGIWMEYWGQGTQVTVSS
polyreactivity (PSR sort gate): high polyreactivity

QVQLVESGGGLVQAGGSLRLSCAASGMIFRRYAMGWYRQAPGKERELVAAITSGGSTYYADSVKGRFTISRDNAKKTVYLQMNSLKAEDTAVYSCAAVFYYATYSKKFEYWGQGTQVTVSS
polyreactivity (PSR sort gate): high polyreactivity

QVQLVESGGGLVQAGGSLRLSCAASGMTFTYYAMGWYRQAPGKERELVAAISWSDGSTYYADSVKGRFTISRDNAKNTVYLQMNSLKPEDTAVYYCAARYGGAISQAKYYYWGQGTQVTVSS
polyreactivity (PSR sort gate): high polyreactivity

QVQLVESGGGLVQAGGSLRLSCAASGNGLGWYRQAPGKERELVAAITRRGGSTYYADSVKGRFTISRDNAKNTVYLQMNSLKPEDTAVYYCAADNPSYNLWYGYWGQGTQVTVSS
polyreactivity (PSR sort gate): low polyreactivity

QVQLVESGGGLVQAGGSLRLSCAASGNHLRSLCLGWYRQAPGKERELVAAITSSGASTYYADSVKGRFTISRDNAKNTVYLQMNSLKPEDTAVYYCAAYLFRRYDYWGQGTQVTVSS
polyreactivity (PSR sort gate): low polyreactivity

QVQLVESGGGLVQAGGSLRLSCAASGNICRINGMGWYRQAPGKERELVASITRSGSTYYADSVKGRFTISRDNAKNTVYLQMNSLKPEDTAVYYCNADGWYWQAQGYDYWGQGTQVTVSS
polyreactivity (PSR sort gate): low polyreactivity

QVQLVESGGGLVQAGGSLRLSCAASGNIFAINAMGWYRQPPGKERELVAAISSRGGSTTYADSVKGRFTISRDIAKNTVYLQMNSLKPEDTAVYDCAADFVRDRFFRYDYWGQGTQVTVSS
polyreactivity (PSR sort gate): high polyreactivity

QVQLVESGGGLVQAGGSLRLSCAASGNIFARYAMGWYRQATGKERDLVSAISRSGGSTYYADSVKGRFTISRDNAKNSVYLQMKCLKPEDTAVYYCNAKSYGVLYWFAYDYWGQGTQVTVSS
polyreactivity (PSR sort gate): high polyreactivity

QVQLVESGGGLVQAGGSLRLSCAASGNIFATYAMGWYRQAPGKERELVAAIRSGGNTNYADSVKGRFTISRDNAKNTVYLQMNSLKPEDTAVYYCNAYKIFYGYIRYNYWGQGTQVTVSS
polyreactivity (PSR sort gate): high polyreactivity

QVQLVESGGGLVQAGGSLRLSCAASGNIFAWYAMGGYRQAPGKERELVADISSRGGSTSYADSVKGRFTISRDNAKKTVYLQMNSLKPEDTAVYYCAASYYYPFEYYYWGQGTQVTVSS
polyreactivity (PSR sort gate): low polyreactivity

QVQLVESGGGLVQAGGSLRLSCAASGNIFAWYAMGWYRQAPGKERELDADISSRGGSTYYADSVKGRFTISRDNAKNTVYLQMNSLKPEDTAVYYCAAVWYWTQDYDYWGQGTQVTVSS
polyreactivity (PSR sort gate): low polyreactivity

QVQLVESGGGLVQAGGSLRLSCAASGNIFDEYTMGWYRQAPWKERELVAAINSGGSTDYADSVKGRFTISRDNAKNTVYLQMNSLKPEDTAVYYCARDVWPTKIQQQPGYGRGEYWGQGTQVTVSS
polyreactivity (PSR sort gate): low polyreactivity

QVQLVESGGGLVQAGGSLRLSCAASGNIFDLYAMGWYRQAPGKERELVAAITRSSSRTYYADSVKGRFTISRDNAKNTVYLQMNSLKPEDTAVYYCRAKQVNRFDYWGQGTQVTVSS
polyreactivity (PSR sort gate): high polyreactivity

QVQLVESGGGLVQAGGSLRLSCAASGNIFESYGMGWYRQAPGKERELVATINTSSGSTYYADSVKGRFTISRDNAKNTVYLQMNILKPEDTAVYYCAAEWYPYPWGYGYWGQGTQVTVSS
polyreactivity (PSR sort gate): low polyreactivity

QVQLVESGGGLVQAGGSLRLSCAASGNIFESYGMGWYRQAPGKERELVATINTSSGSTYYADSVKGRFTISRDNAKNTVYLQMNSLKPEDTAVYYCAARFDSFWVEYDYWGQGTQVTVSS
polyreactivity (PSR sort gate): low polyreactivity

QVQLVESGGGLVQAGGSLRLSCAASGNIFESYGMGWYRQAPGKERELVATINTSSGSTYYADSVKGRFTISRDNAKNTVYLQMNSLKPEDTAVYYCAVEGDYWYVSMYYWGQGTQVTVSS
polyreactivity (PSR sort gate): low polyreactivity

QVQLVESGGGLVQAGGSLRLSCAASGNIFFRNARGWYRQAPGKERELVAAITWSGGSTYYADSVKGRFTISRDNAKNTVFLQMNSLKPEDTAVYYCAADAGQYFTYSGDDNLDYWGQGTQVTVSS
polyreactivity (PSR sort gate): low polyreactivity

QVQLVESGGGLVQAGGSLRLSCAASGNIFFSNAMGWYRQAPGKERELGASISQSGGSTYYADAVKGRFTISRDNAKNTVYLQMNSLKPEDTAVYYCAATQVRRGPAWGRDYWGQGTQETVSS
polyreactivity (PSR sort gate): low polyreactivity

QVQLVESGGGLVQAGGSLRLSCAASGNIFFTYAMGWYIQEPGKERELVAAITSGGRTYYADSVKGRFTISRDNAKNTLHLQMNSLKPEDTAVYYCAAYYKYLGYGYWGQGTQVTVSS
polyreactivity (PSR sort gate): high polyreactivity

QVQLVESGGGLVQAGGSLRLSCAASGNIFGKNVMGWYRQAPGKEREFVAAITSRGGRTNYADSVKGRFTISRDNAKNTVYLQMNSLKPEDTAVYYCAKDKNYPSGYGYWGQGTQVTVSS
polyreactivity (PSR sort gate): high polyreactivity

QVQLVESGGGLVQAGGSLRLSCAASGNIFGLNAMGWYTQAPGKEREFVAAITKTGGSTYYADSVKGRFTISRDNAKNTVYLQMNSLKPEDTAVYYCAARGLPRGYPYEYGYWGQVTQVTVSS
polyreactivity (PSR sort gate): high polyreactivity

QVQLVESGGGLVQAGGSLRLSCAASGNIFGQYAMGWYRQAPGKEREFVAAITWSGGSTYYADSVKGRFTISRDNAKNTVYLQMNSLKPEDTAVYYCAADYGKTHRYDYDYWGQGTQVTVSS
polyreactivity (PSR sort gate): low polyreactivity

QVQLVESGGGLVQAGGSLRLSCAASGNIFGTYAMGWSRQAPRKERELVATISNDDRTNYADSVKGRFTISRDNAKNTVYFQMNSLKPADTAVYYCAVEYPSIAYRKSSKTFDYWGQGTQVTVSS
polyreactivity (PSR sort gate): low polyreactivity

QVQLVESGGGLVQAGGSLRLSCAASGNIFGVYAMGWYRQAPGKERELVAAIRYSTVSTYYADSVKGRFTISRDKAKNTVYLQMNSLKPQDTAVYNSAAHRYYWSLYGYDYWGHGTQVTVSS
polyreactivity (PSR sort gate): high polyreactivity

QVQLVESGGGLVQAGGSLRLSCAASGNIFGVYTMGWYRQAPGKERELVAAISDGGSTYYADSVKVRFTISRDNAKNTVYLQMNSLKPEDTAVYYCAASKIGYWGDYFRYYYWGQGTQVTVSS
polyreactivity (PSR sort gate): low polyreactivity

QVQLVESGGGLVQAGGSLRLSCAASGNIFGYYVMGWYRQAPGKERELVAAITWSAGTTNYADSVKGRFTISRDNAKNTVYLQMNSLKPEDTAVYYCAVTWWYQDYDLTWYLYDYWGQGTQVTVSS
polyreactivity (PSR sort gate): low polyreactivity

QVQLVESGGGLVQAGGSLRLSCAASGNIFHYYPMGWYRQAPGKERELVATISWRGDGTNYADSVKGRFTISRDNEKNTVYLQMISLKPEDTAVYYCAARGVWPDYDYWGQGTQVTVSS
polyreactivity (PSR sort gate): low polyreactivity
